Reference: PMC10269738

Assays:
[1] = molecular target: adhesion G protein-coupled receptor Latrophilin-2 of Vero cells (African green monkey (endogenous in Vero))
[2] = molecular target: cell-surface annexin A2 of Vero cells (African green monkey (endogenous in Vero))

## avian reovirus (ARV) σC protein, strain S1133 (natural protein)
[1]
  virus titer in Vero cells treated with anti-ADGRL2 monoclonal antibody, against untreated samples (log units lower): 3
[2]
  virus titer in Vero cells treated with anti-AnxA2 monoclonal antibody, against untreated samples (log units lower): 2.5
